Assay results taken from patent publication US20130149309A1.

Target: γ-secretase of HEK293 cell membrane preparations
Assay: cell-based or functional assay

- Aβ production in an in vitro γ-secretase assay: 2.4 fold
Substance: recombinant gSAP-16K (aa733-854 of the human gSAP), expressed and purified from BL21 DE3 E.coli (from UniProt A4D1B5 733-854)
